The numbers were not newly measured in patent publication US7850723B1, “Method and apparatus for patient temperature control employing titration of therapy using EEG signals” (Innercool Therapies, Inc., priority 2005, dated 2010), which cites them from elsewhere.

Series [1] concerns clots. Particulars: clots treated with 2.5 μg/ml tPA; incubated at 37, 25, 10, 0 and −8° C.
Series [2] has as its system clots. Particulars: tPA 0.3, 1.0 and 3.0 μg/ml; incubated at 24° C. to 40° C.
Series [3] has as its target plasmin (Homo sapiens, UniProt P00747).

Sequence of plasmin (P00747 581-810 limits assumed, species assumed): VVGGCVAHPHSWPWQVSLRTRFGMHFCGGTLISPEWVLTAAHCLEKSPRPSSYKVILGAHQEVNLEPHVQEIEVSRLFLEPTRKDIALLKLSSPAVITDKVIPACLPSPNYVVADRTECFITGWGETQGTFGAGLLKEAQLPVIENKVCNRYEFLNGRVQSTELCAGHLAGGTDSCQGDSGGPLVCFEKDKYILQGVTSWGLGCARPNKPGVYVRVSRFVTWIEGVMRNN
Sequence of plasmin (P00747 97-580 partner limits assumed, species assumed): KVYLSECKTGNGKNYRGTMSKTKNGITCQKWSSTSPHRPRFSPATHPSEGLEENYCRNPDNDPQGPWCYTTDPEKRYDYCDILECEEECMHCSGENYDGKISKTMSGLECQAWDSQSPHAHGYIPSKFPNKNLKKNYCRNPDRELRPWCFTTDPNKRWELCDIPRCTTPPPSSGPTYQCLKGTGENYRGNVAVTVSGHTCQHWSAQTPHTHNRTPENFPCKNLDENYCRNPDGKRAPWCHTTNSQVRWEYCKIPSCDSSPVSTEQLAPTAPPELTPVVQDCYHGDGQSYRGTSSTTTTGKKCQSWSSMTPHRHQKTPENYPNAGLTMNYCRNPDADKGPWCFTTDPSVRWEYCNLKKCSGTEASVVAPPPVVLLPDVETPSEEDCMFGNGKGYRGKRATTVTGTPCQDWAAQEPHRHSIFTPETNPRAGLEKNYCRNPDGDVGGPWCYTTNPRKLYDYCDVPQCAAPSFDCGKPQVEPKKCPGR

B1: tissue plasminogen activator (protein, UniProt P00750 36-562, looked up)
Tissue-type plasminogen …: SYQVICRDEKTQMIYQQHQSWLRPVLRSNRVEYCWCNSGRAQCHSVPVKSCSEPRCFNGGTCQQALYFSDFVCQCPEGFAGKCCEIDTRATCYEDQGISYRGTWSTAESGAECTNWNSSALAQKPYSGRRPDAIRLGLGNHNYCRNPDRDSKPWCYVFKAGKYSSEFCSTPACSEGNSDCYFGNGSAYRGTHSLTESGASCLPWNSMILIGKVYTAQNPSAQALGLGKHNYCRNPDGDAKPWCHVLKNRRLTWEYCDVPSCSTCGLRQYSQPQFRIKGGLFADIASHPWQAAIFAKHRRSPGERFLCGGILISSCWILSAAHCFQERFPPHHLTVILGRTYRVVPGEEEQKFEVEKYIVHKEFDDDTYDNDIALLQLKSDSSRCAQESSVVRTVCLPPADLQLPDWTECELSGYGKHEALSPFYSERLKEAHVRLYPSSRCTSQHLLNRTVTDNMLCAGDTRSGGPQANLHDACQGDSGGPLVCLNDGRMTLVGIISWGLGCGQKDVPGVYTKVTNYLDWIRDNMRP
Regarding B1, the plasminogen activation entry in series [1] is recorded as “relatively high at low temperatures”. Further, the “amount of clot lysis” value in series [2] is listed as “the amount of clot lysis at lower temperatures was less than that at higher temperatures”.

B2: α2-antiplasmin (protein, UniProt P08697 40-491, looked up)
Alpha-2-antiplasmin: NQEQVSPLTLLKLGNQEPGGQTALKSPPGVCSRDPTPEQTHRLARAMMAFTADLFSLVAQTSTCPNLILSPLSVALALSHLALGAQNHTLQRLQQVLHAGSGPCLPHLLSRLCQDLGPGAFRLAARMYLQKGFPIKEDFLEQSEQLFGAKPVSLTGKQEDDLANINQWVKEATEGKIQEFLSGLPEDTVLLLLNAIHFQGFWRNKFDPSLTQRDSFHLDEQFTVPVEMMQARTYPLRWFLLEQPEIQVAHFPFKNNMSFVVLVPTHFEWNVSQVLANLSWDTLHPPLVWERPTKVRLPKLYLKHQMDLVATLSQLGLQELFQAPDLRGISEQSLVVSGVQHQSTLELSEVGVEAAAATSIAMSRMSLSSFSVNRPFLFFIFEDTTGLPLFVGSVRNPNPSAPRELKEQQDSPGNKDFLQSLKGFPRGDKLFGPDLKLVPPMEEDYPQFGSPK
On to B2, for which the “time required to inactivate plasmin bound to a fibrin surface” value in series [3] was “about 10 seconds”.
